Here are results for three substances from US20140363427A1.

In assay [1] the target is F protein of RSV B-1 (respiratory syncytial virus B-1) (UniProt O36634). Nature of the assay: cell-based or functional assay.
Assay [2] has as its target F protein of RSV B-wash (strain 18537) (respiratory syncytial virus B, strain 18537) (UniProt P13843). The assay is described as follows: cell-based or functional assay.
For assay [3], the target named is F protein of the 58C5 MARM (N63K, M115K, E295G) (Respiratory Syncytial Virus strain A2, escape mutant) (UniProt P03420). Nature of the assay: cell-based or functional assay.
Assay [4] addresses F protein of the Motavizumab MARM (K272E) (Respiratory Syncytial Virus strain A2, escape mutant) (UniProt P03420). Nature of the assay: cell-based or functional assay.
The target in assay [5] is F protein of the parental RSV A2 strain (Example 11) (Respiratory Syncytial Virus strain A2) (UniProt P03420). Nature of the assay: cell-based or functional assay.
Assay [6] concerns the target native RSV F protein from the RSV A2 strain (Respiratory Syncytial Virus strain A2) (UniProt P03420). Nature of the assay: cell-based or functional assay.
Assay [7] concerns the target RSV F A2 mutant F351S (human RSV, A2 strain) (UniProt P03420). Nature of the assay: mutant F in HEK 293 cells.
Assay [8] addresses RSV F A2 mutant V278M (human RSV, A2 strain) (UniProt P03420). Nature of the assay: mutant F in HEK 293 cells.
Assay [9] addresses RSV F A2 mutant E463A (human RSV, A2 strain) (UniProt P03420). Nature of the assay: mutant F in HEK 293 cells.
In assay [10] the target is RSV F A2 mutant E82G (human RSV, A2 strain) (UniProt P03420). Nature of the assay: mutant F in HEK 293 cells.
Assay [11] addresses RSV F A2 mutant N371D (human RSV, A2 strain) (UniProt P03420). The assay is described as follows: mutant F in HEK 293 cells.
The target of assay [12] is RSV F A2 mutant S403A (human RSV, A2 strain) (UniProt P03420). Nature of the assay: mutant F in HEK 293 cells.
In assay [13] the target is RSV F A2 mutant Y86C (human RSV, A2 strain) (UniProt P03420). Nature of the assay: mutant F in HEK 293 cells.

With Fab 58c5, in assay [1], the Average Plaque Count, RSV B-1, Fab at 0.003 µg/ml (12.3 at 0 µg/ml) turned out to be 11.7; the Average Plaque Count, RSV B-1, Fab at 0.016 µg/ml (12.3 at 0 µg/ml) was found to be 8.7; the Average Plaque Count, RSV B-1, Fab at 0.08 µg/ml (12.3 at 0 µg/ml) worked out at 4.7; the Average Plaque Count, RSV B-1, Fab at 0.4 µg/ml (12.3 at 0 µg/ml) is 0. In assay [1], this substance showed an Average Plaque Count, RSV B-1, Fab at 2 µg/ml (12.3 at 0 µg/ml) of 0; an Average Plaque Count, RSV B-1, Fab at 10 µg/ml (12.3 at 0 µg/ml) of 0.3; an ED50, plaque reduction, RSV B-1 of 0.84 nM; an ED50, plaque reduction, RSV B-1 (mass concentration) of 0.042 µg/mL. Moreover, in [2], the Average Plaque Count, RSV B/wash, Fab at 0.003 µg/ml (26.3 at 0 µg/ml) worked out at 23.3; the Average Plaque Count, RSV B/wash, Fab at 0.016 µg/ml (26.3 at 0 µg/ml) amounted to 16.3; the Average Plaque Count, RSV B/wash, Fab at 0.08 µg/ml (26.3 at 0 µg/ml) is 5; the Average Plaque Count, RSV B/wash, Fab at 0.4 µg/ml (26.3 at 0 µg/ml) is 0. Besides, in assay [2], the Average Plaque Count, RSV B/wash, Fab at 2 µg/ml (26.3 at 0 µg/ml) came out at 0.7; the Average Plaque Count, RSV B/wash, Fab at 10 µg/ml (26.3 at 0 µg/ml) stood at 1.3; the ED50, plaque reduction, RSV B/wash turned out to be 0.5 nM; the ED50, plaque reduction, RSV B/wash (mass concentration) came out at 0.025 µg/mL.

As to IgG form of 58c5 (antibody), the ED50, plaque reduction, RSV B-1 in assay [1] was found to be 0.28 nM. The same substance registered an ED50, plaque reduction, RSV B/wash in assay [2] of 0.193 nM. The ED50, plaque reduction, 58C5 MARM in [3] is > 66.7 nM. The ED50, plaque reduction, Motavizumab MARM in assay [4] was 0.173 nM. In addition, the ED50, plaque reduction, RSV A2 parental in assay [5] was 0.115 nM. For the same substance, the ED50, plaque reduction, RSV A2 in assay [6] was 0.133 nM. Further, in assay [7], the immunoluminescence Mean stood at 7.4, the immunoluminescence S1 stood at 2.9, the immunoluminescence S3 worked out at 6.1 and the immunoluminescence S4 was 14.7. In assay [8], this substance returned an immunoluminescence Mean of 99.8, an immunoluminescence S1 of 122, an immunoluminescence S2 of 97.6 and an immunoluminescence S3 of 79.6.

Motavizumab IgG (antibody): the immunoluminescence Mean in [9] came out at 101; in assay [10] it was 42.1; in [11], 26.9; in assay [12], 28; in assay [13], 24.8.
